According to US20240092889A1 (Chugai, published 2024):
Changes are numbered by the printed parent chain. Numbers in names are those of the source. Values belong to the binder of their own block, whether it stands above or below them.

Biological target: T1, recombinant human C1r2s2 tetramer (human, UniProt P09871 16-688; P00736 18-705)
T1 construct: C1s and C1r co-expressed in HEK293/FreeStyle 293-F and purified from conditioned medium
T1 chain 1: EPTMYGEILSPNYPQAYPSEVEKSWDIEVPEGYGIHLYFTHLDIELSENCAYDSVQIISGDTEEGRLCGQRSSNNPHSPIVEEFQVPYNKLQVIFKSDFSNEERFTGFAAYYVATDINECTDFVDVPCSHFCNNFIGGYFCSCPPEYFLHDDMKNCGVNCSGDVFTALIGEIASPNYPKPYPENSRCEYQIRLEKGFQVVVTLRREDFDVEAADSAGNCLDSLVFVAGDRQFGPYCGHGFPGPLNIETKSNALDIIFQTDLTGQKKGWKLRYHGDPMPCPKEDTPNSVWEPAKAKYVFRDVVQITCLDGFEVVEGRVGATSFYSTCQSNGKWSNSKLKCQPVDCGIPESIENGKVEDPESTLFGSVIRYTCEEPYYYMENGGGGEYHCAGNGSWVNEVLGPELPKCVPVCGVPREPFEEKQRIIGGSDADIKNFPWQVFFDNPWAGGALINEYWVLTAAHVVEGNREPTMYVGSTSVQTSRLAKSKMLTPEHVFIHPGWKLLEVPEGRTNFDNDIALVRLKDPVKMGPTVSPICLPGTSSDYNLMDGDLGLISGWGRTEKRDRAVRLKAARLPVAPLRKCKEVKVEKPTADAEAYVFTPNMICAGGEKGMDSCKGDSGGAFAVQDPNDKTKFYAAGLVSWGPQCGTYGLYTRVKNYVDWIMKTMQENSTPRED
T1 chain 2: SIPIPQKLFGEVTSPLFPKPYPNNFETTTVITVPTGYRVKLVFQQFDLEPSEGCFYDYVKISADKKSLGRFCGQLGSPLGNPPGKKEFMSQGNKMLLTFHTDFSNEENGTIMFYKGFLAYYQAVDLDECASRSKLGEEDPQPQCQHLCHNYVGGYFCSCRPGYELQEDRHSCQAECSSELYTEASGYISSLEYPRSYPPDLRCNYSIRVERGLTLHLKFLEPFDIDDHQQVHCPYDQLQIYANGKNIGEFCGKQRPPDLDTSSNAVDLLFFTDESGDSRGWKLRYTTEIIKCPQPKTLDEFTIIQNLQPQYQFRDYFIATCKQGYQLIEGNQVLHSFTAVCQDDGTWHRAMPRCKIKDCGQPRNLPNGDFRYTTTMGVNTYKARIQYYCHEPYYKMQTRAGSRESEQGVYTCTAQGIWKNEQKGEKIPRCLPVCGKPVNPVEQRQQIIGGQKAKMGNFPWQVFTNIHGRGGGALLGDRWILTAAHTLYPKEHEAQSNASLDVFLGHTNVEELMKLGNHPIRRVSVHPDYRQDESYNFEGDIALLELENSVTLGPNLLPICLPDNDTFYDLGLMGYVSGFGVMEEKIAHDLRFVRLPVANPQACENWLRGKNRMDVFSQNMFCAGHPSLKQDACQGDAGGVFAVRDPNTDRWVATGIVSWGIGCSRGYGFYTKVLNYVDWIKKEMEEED
Assay: SPR (BIACORE), antibody captured by ProL, human C1r2s2 injected at 100 nM, pH 7.4, 37 C
Protocol: Analysis of interaction between antibody variants and the human C1r2s2 prepared as mentioned above was carried out at pH7.4, at 37 degrees C. using BIACORE® T200 instrument (GE Healthcare) or BIACORE® 4000 (GE Healthcare). ProL (BioVision) was immobilized onto a CM4 sensorchip using amine coupling kit (GE Healthcare) according to the recommended settings by GE Healthcare. Antibodies and analytes were diluted into the respective running buffers, ACES pH7.4 (20 mM ACES (N-(2-Acetamido)-2-aminoethanesulfonic acid), 150 mM NaCl, 1.2 mM CaCl2, 1 mg/ml bovine serum albumin (BSA), 1 mg/ml CMD (CM-Dextran sodium salt), 0.05% Tween® 20 (polysorbate 20), 0.005 w/v % NaN3). Each antibody was captured onto the sensor surface by ProL. Antibody capture levels were aimed at 200 resonance units (RU). Then, recombinant human C1r2s2 was injected at concentrations of 25 and 100 nM followed by dissociation at pH7.4. The surface was regenerated using 10 mM Glycine-HCl, pH1.5.

binding result: no binding (tested: 100 nM)
B14: AL0463 (antibody, human IgG1, kappa, V domains shown)
VH: QVQLVESGGGVVQPGRSLRLSCAASGFTFSAYAMNWIRQPPGKGLEWIGLIYGSGSTFYASWAKGRVTISVDTSKNQFSLKLSSVTAADTAVYYCARGRSVNYNSDFHLWGQGTLVTVSS
VL: DIQMTQSPSSLSASVGDRVTITCQASQSLHDKKNLAWYQQKPGQPPKLLIYGASTLESGVPSRFSGSGSGTDFTLTISSLQPEDFATYYCQGEFSQSSADCNTFGQGTKVEIKR
notes: COS0637temp with VL C94Q (Kabat), already in the VL entry

binding result: no binding (tested: 100 nM)
B15: AL0458 (antibody, human IgG1, kappa, V domains shown)
VH: B14 VH
VL: B14 VL with Q96K
notes: COS0637temp with VL C94K (Kabat), already in the VL entry

binding result: no binding (tested: 100 nM)
B16: AL0464 (antibody, human IgG1, kappa, V domains shown)
VH: B14 VH
VL: B14 VL with Q96R
notes: COS0637temp with VL C94R (Kabat), already in the VL entry

binding result: no binding (tested: 100 nM)
B17: AL0456 (antibody, human IgG1, kappa, V domains shown)
VH: B14 VH
VL: B14 VL with Q96H
notes: COS0637temp with VL C94H (Kabat), already in the VL entry

binding result: no binding (tested: 100 nM)
B18: AL0452 (antibody, human IgG1, kappa, V domains shown)
VH: B14 VH
VL: B14 VL with Q96D
notes: COS0637temp with VL C94D (Kabat), already in the VL entry

binding result: no binding (tested: 100 nM)
B19: AL0460 (antibody, human IgG1, kappa, V domains shown)
VH: B14 VH
VL: B14 VL with Q96M
notes: COS0637temp with VL C94M (Kabat), already in the VL entry

binding result: no binding (tested: 100 nM)
B20: AL0457 (antibody, human IgG1, kappa, V domains shown)
VH: B14 VH
VL: B14 VL with Q96I
notes: COS0637temp with VL C94I (Kabat), already in the VL entry

binding result: no binding (tested: 100 nM)
B21: AL0453 (antibody, human IgG1, kappa, V domains shown)
VH: B14 VH
VL: B14 VL with Q96E
notes: COS0637temp with VL C94E (Kabat), already in the VL entry

binding result: no binding (tested: 100 nM)
B22: AL0465 (antibody, human IgG1, kappa, V domains shown)
VH: B14 VH
VL: B14 VL with Q96S
notes: COS0637temp with VL C94S (Kabat), already in the VL entry

binding result: no binding (tested: 100 nM)
B23: AL0544 (antibody, human IgG1, kappa, V domains shown)
VH: B14 VH
VL: B14 VL with Q96C, C101E
notes: COS0637temp with VL C95dE (Kabat), already in the VL entry

binding result: no binding (tested: 100 nM)
B24: AL0542 (antibody, human IgG1, kappa, V domains shown)
VH: B14 VH
VL: B14 VL with Q96C, C101A
notes: COS0637temp with VL C95dA (Kabat), already in the VL entry

binding result: no binding (tested: 100 nM)
B25: AL0467 (antibody, human IgG1, kappa, V domains shown)
VH: B14 VH
VL: B14 VL with Q96V
notes: COS0637temp with VL C94V (Kabat), already in the VL entry

binding result: no binding (tested: 100 nM)
B26: AL0552 (antibody, human IgG1, kappa, V domains shown)
VH: B14 VH
VL: B14 VL with Q96C, C101N
notes: COS0637temp with VL C95dN (Kabat), already in the VL entry

binding result: no binding (tested: 100 nM)
B27: AL0459 (antibody, human IgG1, kappa, V domains shown)
VH: B14 VH
VL: B14 VL with Q96L
notes: COS0637temp with VL C94L (Kabat), already in the VL entry

binding result: no binding (tested: 100 nM)
B28: AL0549 (antibody, human IgG1, kappa, V domains shown)
VH: B14 VH
VL: B14 VL with Q96C, C101K
notes: COS0637temp with VL C95dK (Kabat), already in the VL entry

binding result: no binding (tested: 100 nM)
B29: AL0455 (antibody, human IgG1, kappa, V domains shown)
VH: B14 VH
VL: B14 VL with Q96G
notes: COS0637temp with VL C94G (Kabat), already in the VL entry

binding result: no binding (tested: 100 nM)
B30: AL0545 (antibody, human IgG1, kappa, V domains shown)
VH: B14 VH
VL: B14 VL with Q96C, C101F
notes: COS0637temp with VL C95dF (Kabat), already in the VL entry

The next lines start with the binder.

B1: AL0451 (antibody, human IgG1, kappa, V domains shown)
VH: B14 VH
VL: B14 VL with Q96A
notes: COS0637temp with VL C94A (Kabat), already in the VL entry
binding result: no binding (tested: 100 nM)

B2: AL0469 (antibody, human IgG1, kappa, V domains shown)
VH: B14 VH
VL: B14 VL with Q96Y
notes: COS0637temp with VL C94Y (Kabat), already in the VL entry
binding result: no binding (tested: 100 nM)

B3: AL0543 (antibody, human IgG1, kappa, V domains shown)
VH: B14 VH
VL: B14 VL with Q96C, C101D
notes: COS0637temp with VL C95dD (Kabat), already in the VL entry
binding result: no binding (tested: 100 nM)

B4: AL0548 (antibody, human IgG1, kappa, V domains shown)
VH: B14 VH
VL: B14 VL with Q96C, C101I
notes: COS0637temp with VL C95dI (Kabat), already in the VL entry
binding result: no binding (tested: 100 nM)

B5: AL0550 (antibody, human IgG1, kappa, V domains shown)
VH: B14 VH
VL: B14 VL with Q96C, C101L
notes: COS0637temp with VL C95dL (Kabat), already in the VL entry
binding result: no binding (tested: 100 nM)

B6: AL0551 (antibody, human IgG1, kappa, V domains shown)
VH: B14 VH
VL: B14 VL with Q96C, C101M
notes: COS0637temp with VL C95dM (Kabat), already in the VL entry
binding result: no binding (tested: 100 nM)

B7: AL0454 (antibody, human IgG1, kappa, V domains shown)
VH: B14 VH
VL: B14 VL with Q96F
notes: COS0637temp with VL C94F (Kabat), already in the VL entry
binding result: no binding (tested: 100 nM)

B8: AL0468 (antibody, human IgG1, kappa, V domains shown)
VH: B14 VH
VL: B14 VL with Q96W
notes: COS0637temp with VL C94W (Kabat), already in the VL entry
binding result: no binding (tested: 100 nM)

B9: AL0462 (antibody, human IgG1, kappa, V domains shown)
VH: B14 VH
VL: B14 VL with Q96P
notes: COS0637temp with VL C94P (Kabat), already in the VL entry
binding result: no binding (tested: 100 nM)

B10: AL0547 (antibody, human IgG1, kappa, V domains shown)
VH: B14 VH
VL: B14 VL with Q96C, C101H
notes: COS0637temp with VL C95dH (Kabat), already in the VL entry
binding result: no binding (tested: 100 nM)

B11: AL0546 (antibody, human IgG1, kappa, V domains shown)
VH: B14 VH
VL: B14 VL with Q96C, C101G
notes: COS0637temp with VL C95dG (Kabat), already in the VL entry
binding result: no binding (tested: 100 nM)

B12: AL0466 (antibody, human IgG1, kappa, V domains shown)
VH: B14 VH
VL: B14 VL with Q96T
notes: COS0637temp with VL C94T (Kabat), already in the VL entry
binding result: no binding (tested: 100 nM)

B13: AL0461 (antibody, human IgG1, kappa, V domains shown)
VH: B14 VH
VL: B14 VL with Q96N
notes: COS0637temp with VL C94N (Kabat), already in the VL entry
binding result: no binding (tested: 100 nM)
